167 variants from the RNAGym collection of RNA variant scans (doi:10.7554/elife.80360) can be followed below.

First the molecules themselves.
B1: Twister Ribozyme (parent)
chain: AACACUGCCAAUGCCGGUCCCAAGCCCGGAUAAAAGUGGAGGGGGCGG

The data set covers variants of B1. As to the kind of experiment: self-cleavage, relative activity (ratio to wild type); higher = more cleavage; co-transcriptional.
C27G G39U: the self-cleavage is 0.123.

Turning to C27G G39A, the self-cleavage was found to be 0.0704.

In the case of G29A A34G, the self-cleavage turned out to be 0.684.

With G28C G38A, the self-cleavage worked out at 0.743.

Take G29U G48U: the self-cleavage was found to be 0.867.

With G29U G48A, the self-cleavage is 0.905.

On to C27G G28A, for which the self-cleavage is 0.0984.

Consider C27G G28C, for which the self-cleavage amounted to 0.216.

Turning to C27G G28U, the self-cleavage worked out at 0.0803.

For the variant G29U G36U, the self-cleavage worked out at 0.212.

On to G29U G36C, for which the self-cleavage was 0.319.

A30G A40G: the self-cleavage was 0.187.

Turning to G29A G41U, the self-cleavage turned out to be 0.461.

For the variant C27A U31C, the self-cleavage was found to be 0.495.

For C27A A35C, the self-cleavage amounted to 0.58.

As for C27A A35G, the self-cleavage was found to be 0.0986.

Take C27A A35U: the self-cleavage worked out at 0.742.

With C27U G48A, the self-cleavage stood at 0.633.

Regarding C27U G48U, the self-cleavage amounted to 0.942.

As for G29C G48U, the self-cleavage came to 0.642.

With A30G A34U, the self-cleavage was 0.86.

Consider A30G A34G, for which the self-cleavage was 0.761.

As to A30G A34C, the self-cleavage turned out to be 0.497.

Turning to G28U G36C, the self-cleavage is 0.232.

Turning to G28U G36A, the self-cleavage was found to be 0.388.

For the variant C27U G41C, the self-cleavage turned out to be 0.176.

As for C27U G41U, the self-cleavage came to 0.345.

Turning to C27U G41A, the self-cleavage worked out at 0.347.

In the case of C27G G48U, the self-cleavage came to 0.0985.

Turning to G29A G43C, the self-cleavage was 0.163.

Regarding G29A G43U, the self-cleavage was 0.326.

In the case of G29A G43A, the self-cleavage worked out at 0.195.

Consider A30C G41U, for which the self-cleavage amounted to 0.156.

With A30C G41A, the self-cleavage is 0.133.

On to A30C G41C, for which the self-cleavage was 0.124.

As for C27G A40U, the self-cleavage came out at 0.107.

As for C27G A40C, the self-cleavage is 0.119.

In the case of C27G A40G, the self-cleavage came out at 0.062.

Take C27G A32G: the self-cleavage came to 0.0742.

In the case of C27G G43U, the self-cleavage was 0.0926.

Turning to C27G G43C, the self-cleavage stood at 0.0881.

Regarding C27G G43A, the self-cleavage was 0.0971.

On to G28A G39U, for which the self-cleavage was 0.16.

On to G28A G38A, for which the self-cleavage was 0.821.

Consider G29U G43A, for which the self-cleavage is 0.23.

For the variant G29U G43C, the self-cleavage was found to be 0.19.

In the case of G29C G38U, the self-cleavage is 0.627.

As for G29U U31G, the self-cleavage stood at 0.92.

Regarding G29U U31C, the self-cleavage stood at 0.972.

G29C G42U: the self-cleavage was determined as 0.129.

As to G29C G42C, the self-cleavage is 0.174.

With G29C G42A, the self-cleavage worked out at 0.11.

On to C27A C46A, for which the self-cleavage is 0.416.

On to C27A C46U, for which the self-cleavage was determined as 0.639.

Take C27A C46G: the self-cleavage was 0.466.

In the case of A30C G47U, the self-cleavage is 0.48.

Consider A30C G47A, for which the self-cleavage worked out at 0.577.

As to G28U G42A, the self-cleavage amounted to 0.26.

In the case of G28A G48A, the self-cleavage worked out at 0.775.

On to G29A G48A, for which the self-cleavage is 0.874.

For G28U U31G, the self-cleavage came to 0.992.

A30C A32C: the self-cleavage is 0.758.

For A30C A32U, the self-cleavage was found to be 0.9.

Take C27A G43A: the self-cleavage came to 0.148.

Take C27A G43C: the self-cleavage turned out to be 0.136.

On to G29C G45U, for which the self-cleavage was found to be 0.362.

Take G29C G45A: the self-cleavage came out at 0.667.

On to G29C G41C, for which the self-cleavage is 0.0927.

For the variant G28A G41A, the self-cleavage was 0.385.

For G28A U37G, the self-cleavage came out at 0.331.

Turning to G28A U37C, the self-cleavage stood at 0.391.

In the case of A30G G44C, the self-cleavage stood at 1.02.

On to A30G G44U, for which the self-cleavage was 0.887.

G28C G45C: the self-cleavage turned out to be 0.155.

On to G28C G45U, for which the self-cleavage was 0.349.

A30G G36U: the self-cleavage is 0.32.

Consider G28A G45A, for which the self-cleavage is 0.653.

In the case of G28A G45U, the self-cleavage was 0.375.

In the case of G28A G45C, the self-cleavage turned out to be 0.185.

As for G29A C46U, the self-cleavage was found to be 0.948.

On to G29A C46A, for which the self-cleavage was 0.922.

On to G28C G41U, for which the self-cleavage worked out at 0.332.

On to G28C G41C, for which the self-cleavage came to 0.217.

As to G28C G41A, the self-cleavage turned out to be 0.408.

Take G29U G44U: the self-cleavage turned out to be 0.837.

As to G28C G48A, the self-cleavage is 0.405.

With G28C G36C, the self-cleavage was 0.173.

Consider G28C G36A, for which the self-cleavage amounted to 0.292.

Regarding G28U G38A, the self-cleavage amounted to 0.763.

Consider G28U G38C, for which the self-cleavage stood at 0.676.

Regarding G28A A30U, the self-cleavage was determined as 0.844.

Consider G28A A30C, for which the self-cleavage came to 0.935.

As to G28A A30G, the self-cleavage amounted to 0.938.

Take C27A U37G: the self-cleavage worked out at 0.0964.

Take C27A U37C: the self-cleavage was determined as 0.136.

Regarding C27A U37A, the self-cleavage turned out to be 0.138.

With G29A G42U, the self-cleavage is 0.323.

Regarding G29A G42A, the self-cleavage came to 0.284.

Regarding C27A G28A, the self-cleavage was determined as 0.423.

Take G29C G39A: the self-cleavage came to 0.143.

For the variant G29C G39U, the self-cleavage was 0.12.

Take A30G G47A: the self-cleavage turned out to be 0.817.

As to A30G G47U, the self-cleavage worked out at 0.877.

For the variant G29A A32C, the self-cleavage came out at 0.916.

Take G29A A32U: the self-cleavage came to 0.949.

As to G28U G45U, the self-cleavage stood at 0.375.

For the variant G28C A40U, the self-cleavage turned out to be 0.17.

On to G28A C46G, for which the self-cleavage came to 0.864.

For G28A C46A, the self-cleavage came out at 0.682.

In the case of G29C G44U, the self-cleavage was found to be 0.777.

For the variant G28C A32U, the self-cleavage came to 0.813.

With G28C A32G, the self-cleavage is 0.734.

In the case of G28U A35G, the self-cleavage was determined as 0.584.

For the variant G28U A35U, the self-cleavage worked out at 0.888.

In the case of C27U A32G, the self-cleavage was determined as 0.697.

In the case of C27U G28C, the self-cleavage amounted to 0.568.

C27U G28U: the self-cleavage amounted to 0.501.

C27G U31C: the self-cleavage was found to be 0.072.

On to G29C G43U, for which the self-cleavage came out at 0.156.

For the variant G29A A33G, the self-cleavage was 0.845.

Take G28A G44C: the self-cleavage came to 0.718.

For the variant G28A G44A, the self-cleavage is 0.702.

Take C27G G29U: the self-cleavage was found to be 0.0759.

G28U A34U: the self-cleavage was 0.585.

As to G28U A34C, the self-cleavage worked out at 0.205.

As for A30C U31A, the self-cleavage was 0.687.

As to A30C U31C, the self-cleavage was found to be 0.841.

Regarding C27U G45U, the self-cleavage was 0.638.

Regarding G29A U37G, the self-cleavage was found to be 0.395.

Regarding G29A U37A, the self-cleavage is 0.569.

Regarding A30G G41C, the self-cleavage is 0.37.

Consider G29U A30G, for which the self-cleavage was found to be 1.

Take G28A G36C: the self-cleavage amounted to 0.131.

Consider G29U, for which the self-cleavage was determined as 0.937.

Regarding G29A, the self-cleavage came out at 0.915.

Turning to G29C, the self-cleavage worked out at 0.858.

Regarding C27A G42A, the self-cleavage is 0.0939.

Regarding A30G G42U, the self-cleavage is 0.377.

Turning to G28A A35U, the self-cleavage was 0.847.

For G28A A35C, the self-cleavage was determined as 0.793.

Regarding C27A G45U, the self-cleavage amounted to 0.207.

For the variant C27A G45A, the self-cleavage was 0.334.

Consider G28A A33U, for which the self-cleavage is 0.707.

Take G28A A33G: the self-cleavage amounted to 0.781.

On to C27U G38U, for which the self-cleavage was determined as 0.756.

Regarding C27U G38A, the self-cleavage is 0.72.

Regarding G29C G36U, the self-cleavage came out at 0.106.

In the case of A30G A32C, the self-cleavage came out at 0.877.

As for C27G G36A, the self-cleavage was 0.0994.

For the variant C27G G36U, the self-cleavage was determined as 0.0875.

With C27U U31A, the self-cleavage came to 0.792.

In the case of C27U U31G, the self-cleavage amounted to 0.723.

As to G28U A30G, the self-cleavage amounted to 0.999.

As to G28U A30C, the self-cleavage was 0.968.

As for G28U G44C, the self-cleavage came to 0.782.

As for G28U G44U, the self-cleavage is 0.879.

For A30C A35U, the self-cleavage was 0.912.

With G29A G45C, the self-cleavage is 0.249.

For G28C U37C, the self-cleavage stood at 0.267.

As to G28C G43U, the self-cleavage worked out at 0.17.

As for C27U A35C, the self-cleavage is 0.641.

On to C27U G39U, for which the self-cleavage stood at 0.168.

Take A30C G44U: the self-cleavage turned out to be 0.793.

Take A30C G44C: the self-cleavage turned out to be 0.874.

With G28C U31A, the self-cleavage turned out to be 0.814.

As to G28C U31C, the self-cleavage was 0.938.

For the variant G28C U31G, the self-cleavage was found to be 0.739.
